Test results taken from the Immune Epitope Database (IEDB).

How the values were obtained:
HLA-B*07:02 [1] = assay: IEDB peptide-MHC binding, purified MHC/competitive/fluorescence; ≥ and ≤ were set here for values at or beyond the usual limits of such assays
HLA-A*02:01 [2] = assay: as above
HLA-B*39:01 [3] = assay: IEDB peptide-MHC binding, purified MHC/direct/fluorescence; filed as Kd, often an IC50 or EC50 that approximates it; ≥ and ≤ were set here for values at or beyond the usual limits of such assays
HLA-A*24:02 = assay: IEDB peptide-MHC binding, purified MHC/competitive/fluorescence; ≥ and ≤ were set here for values at or beyond the usual limits of such assays
HLA-B*08:01 = assay: as above; details: source organism: Vaccinia virus WR
HLA-B*07:02 [4] = assay: IEDB peptide-MHC binding, purified MHC/direct/fluorescence; filed as Kd, often an IC50 or EC50 that approximates it; ≥ and ≤ were set here for values at or beyond the usual limits of such assays
HLA-B*44:02 = assay: as above
HLA-B*57:01 = assay: as above
HLA-A*31:01 = assay: as above
HLA-B*27:05 = assay: as above
HLA-A*01:01 [5] = assay: as above
HLA-A*03:01 = assay: as above
HLA-B*58:01 = assay: as above
HLA-B*51:01 = assay: as above
HLA-A*01:01 [6] = assay: IEDB peptide-MHC binding, purified MHC/competitive/fluorescence; ≥ and ≤ were set here for values at or beyond the usual limits of such assays
HLA-B*15:01 [7] = assay: as above
HLA-A*32:01 = assay: IEDB peptide-MHC binding, purified MHC/competitive/radioactivity; filed as Kd, often an IC50 or EC50 that approximates it; ≥ and ≤ were set here for values at or beyond the usual limits of such assays; details: source organism: Vaccinia virus WR
HLA-B*46:01 = assay: IEDB peptide-MHC binding, purified MHC/direct/fluorescence; filed as Kd, often an IC50 or EC50 that approximates it; ≥ and ≤ were set here for values at or beyond the usual limits of such assays; details: source organism: Mycobacterium tuberculosis
HLA-B*15:01 [8] = assay: as above; details: source organism: Mycobacterium tuberculosis
HLA-A*11:01 = assay: as above; details: source organism: Mycobacterium tuberculosis
HLA-B*18:01 = assay: as above; details: source organism: Mycobacterium tuberculosis
HLA-B*15:09 = assay: as above; details: source organism: Mycobacterium tuberculosis str. Haarlem
HLA-A*26:01 = assay: as above; details: source organism: Mycobacterium tuberculosis str. Haarlem
HLA-B*40:01 = assay: as above; details: source organism: Mycobacterium tuberculosis
HLA-B*48:01 = assay: as above; details: source organism: Mycobacterium tuberculosis
HLA-A*02:01 [9] = assay: as above; details: source organism: Mycobacterium tuberculosis
HLA-B*15:17 = assay: as above; details: source organism: Mycobacterium tuberculosis
HLA-A*69:01 = assay: as above; details: source organism: Mycobacterium tuberculosis
HLA-B*83:01 = assay: IEDB peptide-MHC binding, purified MHC/competitive/fluorescence; filed as Kd, often an IC50 or EC50 that approximates it; ≥ and ≤ were set here for values at or beyond the usual limits of such assays; details: source organism: Mycobacterium tuberculosis variant bovis BCG str. Pasteur 1173P2
HLA-B*45:06 = assay: as above; details: source organism: Mycobacterium tuberculosis variant bovis BCG str. Pasteur 1173P2
HLA-A*01:01 [10] = assay: as above; details: source organism: Mycobacterium tuberculosis variant bovis BCG str. Pasteur 1173P2
HLA-B*15:01 [11] = assay: as above; details: source organism: Mycobacterium tuberculosis variant bovis BCG str. Pasteur 1173P2
HLA-B*39:01 [12] = assay: as above; details: source organism: Mycobacterium tuberculosis variant bovis BCG str. Pasteur 1173P2
HLA-B*15:42 = assay: as above; details: source organism: Mycobacterium tuberculosis variant bovis BCG str. Pasteur 1173P2
HLA-B*53:01 = assay: IEDB peptide-MHC binding, purified MHC/competitive/radioactivity; filed as Kd, often an IC50 or EC50 that approximates it; ≥ and ≤ were set here for values at or beyond the usual limits of such assays; details: source organism: Dengue virus 3 Martinique/1243/1999
[13] = source organism: Sudan ebolavirus
[14] = source organism: Vaccinia virus WR
[15] = source organism: Mammarenavirus lassaense
[16] = source organism: Zaire ebolavirus
[17] = source organism: Mycobacterium tuberculosis

In the case of RLDRPHTPQ, the IC50 (HLA-B*07:02 [1]; [13]) is reported as 28.5 µM and the IC50 (HLA-A*02:01 [2]; [13]) is reported as at least 88.5 µM.

MRMGDLHLL showed a Kd (HLA-B*39:01 [3]; source organism: Influenza A virus (A/swine/Italy/1850/1977(H3N2))) of 0.0396 µM.

With LPWTKISET the IC50 (HLA-B*07:02 [1]; [14]) was at least 81.6 µM, the IC50 (HLA-A*24:02; [14]) was 66.7 µM and the IC50 (HLA-A*02:01 [2]; [14]) was at least 405 µM. It also gave an IC50 (HLA-B*08:01) of at least 86.8 µM.

Sequence NQFGTMPSL has a Kd (HLA-B*07:02 [4]; [15]) of at least 20 µM, a Kd (HLA-B*44:02; [15]) of at least 20 µM and a Kd (HLA-B*57:01; [15]) of at least 20 µM. For the same sequence, the Kd (HLA-A*31:01; [15]) was at least 20 µM, the Kd (HLA-B*27:05; [15]) was at least 20 µM and the Kd (HLA-A*01:01 [5]; [15]) was at least 20 µM. The Kd (HLA-A*03:01; [15]) was at least 20 µM, the Kd (HLA-B*58:01; [15]) was at least 20 µM and the Kd (HLA-B*39:01 [3]; [15]) was 0.0011 µM.

SPGRKNGSF gave a Kd (HLA-B*51:01; source organism: Yellow fever virus 1899/81) of at least 20 µM.

KMDNGTLEF gave an IC50 (HLA-A*24:02; [14]) of 1.06 µM, an IC50 (HLA-A*01:01 [6]; [14]) of 15 µM and an IC50 (HLA-A*02:01 [2]; [14]) of 6.36 µM. For the same sequence, the IC50 (HLA-B*15:01 [7]; [14]) was 24.4 µM and the Kd (HLA-A*32:01) was 0.000923 µM.

SVGHMMVIF gave an IC50 (HLA-B*07:02 [1]; [16]) of at least 277 µM, an IC50 (HLA-A*24:02; [16]) of 2.41 µM and an IC50 (HLA-A*02:01 [2]; [16]) of 18.6 µM. For the same sequence, the IC50 (HLA-B*15:01 [7]; [16]) was 10.5 µM.

HKDGAFFLY was tested, and the IC50 (HLA-A*01:01 [6]; [13]) was 6.35 µM.

For FHVNPAFVL, the Kd (HLA-B*07:02 [4]; [17]) was at least 20 µM, the Kd (HLA-B*44:02; [17]) was at least 20 µM and the Kd (HLA-B*46:01) was at least 20 µM. The Kd (HLA-B*57:01; [17]) was at least 20 µM, the Kd (HLA-A*31:01; [17]) was at least 20 µM and the Kd (HLA-B*27:05; [17]) was at least 20 µM. For the same sequence, the Kd (HLA-A*01:01 [5]; [17]) was at least 20 µM, the Kd (HLA-A*03:01; [17]) was at least 20 µM and the Kd (HLA-B*58:01; [17]) was at least 20 µM. For the same sequence, the Kd (HLA-B*15:01 [8]) was at least 20 µM, the Kd (HLA-A*11:01) was at least 20 µM and the Kd (HLA-B*39:01 [3]; [17]) was 0.014 µM.

In the case of RPRCAYLPF, the Kd (HLA-B*18:01) is reported as 5.59 µM, the Kd (HLA-B*51:01; [17]) is reported as at least 20 µM and the Kd (HLA-B*15:09) is reported as at least 20 µM. The Kd (HLA-A*26:01) was 2.6 µM, the Kd (HLA-B*46:01) was 5.59 µM and the Kd (HLA-B*57:01; [17]) was at least 20 µM. It also gave a Kd (HLA-B*40:01) of at least 20 µM, a Kd (HLA-B*48:01) of at least 20 µM and a Kd (HLA-A*31:01; [17]) of at least 20 µM. The Kd (HLA-B*27:05; [17]) was at least 20 µM, the Kd (HLA-A*02:01 [9]) was at least 20 µM and the Kd (HLA-A*03:01; [17]) was at least 20 µM. For the same sequence, the Kd (HLA-B*58:01; [17]) was at least 20 µM, the Kd (HLA-A*11:01) was at least 20 µM and the Kd (HLA-B*15:17) was 0.197 µM. For the same sequence, the Kd (HLA-A*69:01) was at least 20 µM, the Kd (HLA-B*83:01) was 0.0317 µM and the Kd (HLA-B*45:06) was at least 5 µM. For the same sequence, the Kd (HLA-A*01:01 [10]) was at least 20 µM, the Kd (HLA-B*15:01 [11]) was 2.17 µM and the Kd (HLA-B*39:01 [12]) was at least 20 µM. For the same sequence, the Kd (HLA-B*15:42) was at least 5 µM.

In the case of TLDGQQFYW, the IC50 (HLA-A*24:02; [16]) is reported as 0.182 µM, the IC50 (HLA-A*01:01 [6]; [16]) is reported as 35.3 µM and the IC50 (HLA-A*02:01 [2]; [16]) is reported as 2.22 µM.

HPGFTILAL was tested, and the Kd (HLA-B*51:01; source organism: dengue virus type 3) was at least 20 µM and the Kd (HLA-B*53:01) was 0.0003 µM.

For VPKLLLWFN, the IC50 (HLA-B*07:02 [1]; source organism: Variola virus) was at least 810 µM and the IC50 (HLA-A*24:02; source organism: Variola virus) was 9.71 µM.

With FSTSDGKEY the IC50 (HLA-A*01:01 [6]; [16]) was 14.3 µM and the IC50 (HLA-B*15:01 [7]; [16]) was 11.6 µM.
